The numbers were not newly measured in PMC3001128, which cites them from elsewhere.

The target in data set [1] is NTB-A (Homo sapiens) (UniProt Q96DU3).
Data set [2] addresses GITR (Homo sapiens) (UniProt Q9Y5U5).
Data set [3] addresses SLAM (CD150) (Homo sapiens) (UniProt Q13291).
The target of data set [4] is CD58 IgV (Homo sapiens) (UniProt P19256).
Data set [5] concerns the target CD48 IgV (UniProt P18181).
UniProt P18181, sequence (P18181 29-125): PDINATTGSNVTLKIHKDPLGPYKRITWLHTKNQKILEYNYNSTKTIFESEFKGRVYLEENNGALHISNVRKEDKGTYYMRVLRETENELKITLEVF

UniProt P19256, sequence (P19256 30-121): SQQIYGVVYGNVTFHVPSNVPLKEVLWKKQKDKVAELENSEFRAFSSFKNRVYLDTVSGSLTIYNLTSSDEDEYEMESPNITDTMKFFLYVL
UniProt Q9Y5U5, sequence (Q9Y5U5 26-241): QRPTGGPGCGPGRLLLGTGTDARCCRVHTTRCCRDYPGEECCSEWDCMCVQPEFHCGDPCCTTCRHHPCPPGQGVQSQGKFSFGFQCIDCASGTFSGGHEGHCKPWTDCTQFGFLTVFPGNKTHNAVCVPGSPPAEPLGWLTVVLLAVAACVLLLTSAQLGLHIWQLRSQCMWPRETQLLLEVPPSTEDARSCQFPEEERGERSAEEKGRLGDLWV

For orientation: Kd means the free concentration of one partner at which half of the binding sites on the other are occupied at equilibrium, for simple one-to-one binding. With NTB-A (from UniProt Q96DU3), the Kd in data set [1] is 2 µM.
As to GITRL (from UniProt Q9UNG2), the Kd in data set [2] was 0.56 µM.
With SLAM (CD150) (from UniProt Q13291), the Kd in data set [3] was 200 µM.
As for CD2 IgV (from UniProt P06729), in data set [4], the Kd was 10 µM.
For 2B4 IgV (from UniProt Q07763), the Kd in data set [5] is 4 µM.
